Laboratory results reported in US12410253B2, “Compositions comprising anti-NRP2 antibodies” (aTyr Pharma, Inc., priority 2019, dated 2025).
Entries after “also recorded” stand apart in the source; their conditions may differ.

Experiments:
[1] = tested on: BT549; experiment: 3D soft agar colony formation assay, BT549; type: cell-based, human
Experimental: (§1) Anchorage-independent growth is the ability of transformed cells to grow independently of a solid surface, and is a hallmark of carcinogenesis. The soft agar colony formation assay is a well-established method for characterizing this capability in vitro (J Vis Exp. 2014; (92): 51998). Human triple negative breast cancer (TNBC) cell lines MDA-MB-231 (HTB-26™) and BT549 (HTB122™) were obtained from ATCC and employed in this assay.
(§2) MDA-MB-231 was cultured in 1×RPMI media containing 10% FBS and 1% P/S. BT549 was cultured in 1×RPMI media containing 10% FBS, 0.023 U/mL insulin and 1% P/S. Cells were recovered and expanded from frozen stocks for 2-3 passages. The NRP2-high population was sorted out on FACS equipment following cell surface staining by a fluorophore-conjugated anti-NRP2 antibody. […] The chemo drug Cisplatin or 5-FU was added at a final concentration of IC30 or 1/2 IC30, based on a preliminary test that determined their inhibition curves on MDA-MB-231 cells, in combination with the antibodies a-NRP2-10v10 or its isotype control hIgG4 at 100 nM. […] After 6 or 9 days of treatment, the soft agar matrix was dissolved and the formed cell colonies were quantified using CyQuant dye diluted in PBS (provided in the Cell Biolab kit), which produced a fluorescence signal proportional to viable cells.

[2] = target: T1, mouse NRP2 (Mus musculus, UniProt O35375); experiment: Epitope mapping: FACS staining of Expi293 cells expressing mouse NRP2 and b1 domain mutants; type: binding
T1 construct: host or cells: Expi293, transient transfection
T1 sequence (O35375 21-926 isoform O35375-4): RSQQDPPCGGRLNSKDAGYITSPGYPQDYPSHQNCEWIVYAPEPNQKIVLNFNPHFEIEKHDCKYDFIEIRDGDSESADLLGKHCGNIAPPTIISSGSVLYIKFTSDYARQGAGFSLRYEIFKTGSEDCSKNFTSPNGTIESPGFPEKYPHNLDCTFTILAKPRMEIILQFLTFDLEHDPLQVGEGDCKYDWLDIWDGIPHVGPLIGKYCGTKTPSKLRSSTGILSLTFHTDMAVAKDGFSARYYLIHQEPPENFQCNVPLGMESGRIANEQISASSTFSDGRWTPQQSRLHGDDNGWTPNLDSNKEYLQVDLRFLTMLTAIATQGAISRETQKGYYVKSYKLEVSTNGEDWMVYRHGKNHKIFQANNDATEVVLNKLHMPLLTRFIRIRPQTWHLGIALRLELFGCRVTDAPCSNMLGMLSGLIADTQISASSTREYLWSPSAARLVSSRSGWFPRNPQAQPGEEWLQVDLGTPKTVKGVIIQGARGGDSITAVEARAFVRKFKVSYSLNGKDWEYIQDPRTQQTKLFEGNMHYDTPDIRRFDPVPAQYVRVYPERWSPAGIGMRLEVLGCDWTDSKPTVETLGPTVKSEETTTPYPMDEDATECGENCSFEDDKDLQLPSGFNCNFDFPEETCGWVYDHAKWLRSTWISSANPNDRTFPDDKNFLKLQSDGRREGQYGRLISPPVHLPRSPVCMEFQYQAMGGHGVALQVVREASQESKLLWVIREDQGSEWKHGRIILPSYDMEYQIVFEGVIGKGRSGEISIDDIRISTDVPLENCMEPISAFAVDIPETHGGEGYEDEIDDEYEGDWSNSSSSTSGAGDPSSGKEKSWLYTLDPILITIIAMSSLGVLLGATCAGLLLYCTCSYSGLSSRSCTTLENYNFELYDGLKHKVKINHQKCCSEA
Experimental: (§3) Human NRP2a (version 2; see Table N1) and mouse NRP2v2 cDNAs were obtained from Origene. […] Human and mouse NRP2, expression vectors, along with expression vectors encoding all 6 mutants were transfected into Expi293 cells at 1 million cells/mL, by standard techniques. Approximately 40 hours post transfection cells were co-stained with aNRP2-10v10, and a species agnostic anti-NRP2 a1 specific binding antibody.

[3] = tested on: mouse NRP2; experiment: as above; type: binding; details: MFI staining, antibody 10 nM, mutations made in isolation
Experimental: as §3

[4] = tested on: MDA-MB-231; experiment: 3D soft agar colony formation assay, MDA-MB-231; type: cell-based, human
Experimental: as §1, §2

[5] = tested on: MDA-MB-231 cells; experiment: 3D methylcellulose colony formation assay, MDA-MB-231; type: cell-based, human; details: antibody 100 nM in combination with Cisplatin (2 doses) or Bevacizumab (100 nM), compared to hIgG4
From the text: Other experimental details are essentially the same as described in the previous example.

[6] = tested on: neo-lymphangiogenesis of the cornea; experiment: Corneal alkali-burn injury model of neovascularization (LYVE-1 staining); type: in vivo, mouse; details: IP on Day 0, 3, 7 and 10; Day 14; compared to IgG control; p=0.07
Experimental: Study Design & Treatment Regimen. The study consisted of 40 female C57BL/6 mice separated into four groups. Prior to study, animals were randomized into four groups, 10 mice per group. On Day 0, neovascularization (NV) of the cornea was induced from alkali-burn injury in the eyes of animals under anesthesia. Animals were treated intraperitoneally with control IgG (Group 1), aNRP2-28 (Group 2) and Bevacizumab (Group 3) on post-injury Day 0, 3, 7 and 10. During the in-life phase, animals were monitored with daily clinical observations and weekly body weights. Additionally, ocular assessments of injured eyes were scored and photos taken on post-injury Day 7 and Day 14. All animals were euthanized on Day 14. Injured eyes from all animals were removed and dissected. Whole-mounted corneas were fixed, stained with LYVE-1, and analyzed immunohistochemically to examine the efficacy of Test Articles.

B1: aNRP2-10v10: humanized, affinity matured anti-NRP2 antibody, target domain b1, VEGF-C blocking; VH SEQ ID NO: 49, VL SEQ ID NO: 50 (antibody, V domains shown)
VH: EVQLVQSGAEVKKPGATVKISCKVSGFNIKDYYVHWVQQAPGKGLEWMGRIDVEDDETKYAPKFQGRVTITADTSTDTAYMELSSLRSEDTAVYYCATPIYGAREAWFAYWGQGTLVTVSS
VL: DIQMTQSPSSLSASVGDRVTITCTASSSVSSSYLHWYQQKPGKAPKLLIYRTSNLASGVPSRFSGSGSGTDFTLTISSLQPEDFATYYCHQYYRSPPTFGGGTKVEIK
modifications: Variable heavy chain region; Light chain variable region
colony formation, soft agar, antibody treatment alone (BT549) ([1]; aNRP2-10v10 treatment alone): no obvious effect | colony formation by BT549 cells, soft agar ([1]; antibody 100 nM in combination with Cisplatin or 5-FU at certain doses, compared to hIgG4 control): significantly more pronounced | binding to mouse NRP2 (wild type) [2]: binds specifically to the b1 domain of human NRP2, but not mouse NRP2; also recorded: does not cross react with mouse NRP2 | binding activity to mouse NRP2 with mutations F299Y, K354N, and L416S [3]: restored partial, but incomplete, binding activity | binding to mouse NRP2 with mutations 1383V, M400A, and 1407V [3]: no improvement in binding | colony formation, soft agar, antibody treatment alone (MDA-MB-231) ([4]; aNRP2-10v10 treatment alone): no obvious effect | colony formation by MDA-MB-231 cells, soft agar ([4]; antibody 100 nM in combination with Cisplatin or 5-FU (IC30 or 1/2 IC30), compared to hIgG4 control, NRP2-high sorted cells): significantly more pronounced; also recorded: significant inhibition of colony formation | colony formation by MDA-MB-231 cells, methylcellulose [5]: inhibitory effect; also recorded: significantly enhanced inhibition of colony formation | neo-lymphangiogenesis, % Lyve-1+ area of cornea [6]: clear trend towards reduced sprouting of lymphatic vessels
